Assays:
RANTES(1-68) = RANTES(1-68) (UniProt P13501)
MCP-2 = MCP-2 (UniProt P80075)
Eotaxin = Eotaxin (UniProt P51671)
MCP-1 = MCP-1 (UniProt P13500)
IP-10 = IP-10 (UniProt P02778)
Sequence of IP-10 (P02778 whole entry, looked up): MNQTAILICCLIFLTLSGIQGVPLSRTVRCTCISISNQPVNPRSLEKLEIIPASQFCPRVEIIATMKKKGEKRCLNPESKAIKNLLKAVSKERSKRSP

Sequence of Eotaxin (P51671 24-97): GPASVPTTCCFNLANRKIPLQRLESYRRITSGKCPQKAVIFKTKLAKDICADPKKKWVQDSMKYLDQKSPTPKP
Sequence of RANTES(1-68) (P13501 24-91): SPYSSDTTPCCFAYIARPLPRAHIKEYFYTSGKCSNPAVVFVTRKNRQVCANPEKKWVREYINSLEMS
Sequence of MCP-1 (P13500 whole entry, looked up): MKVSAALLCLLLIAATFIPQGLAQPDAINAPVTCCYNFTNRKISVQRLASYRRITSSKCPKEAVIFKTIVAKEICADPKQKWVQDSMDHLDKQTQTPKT
Sequence of MCP-2 (P80075 24-99): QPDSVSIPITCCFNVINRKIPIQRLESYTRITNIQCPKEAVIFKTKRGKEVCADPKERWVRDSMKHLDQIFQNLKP

## enzymatically active (E+) recombinant soluble human CD26 (sCD26)
RANTES(1-68)
  hydrolysis of rhRANTES by sCD26 (ES-MS of cleavage products): 100 nM rhRANTES underwent partial to complete hydrolysis when incubated overnight at 37 °C with increasing amounts (25 to 250 (U) of sCD26
MCP-2
  CD26 cleavage (ES-MS after overnight digestion with sCD26): Yes
Eotaxin
  CD26 cleavage (ES-MS after overnight digestion with sCD26): Yes
MCP-1
  CD26 cleavage (ES-MS after overnight digestion with sCD26): No
IP-10
  CD26 cleavage (ES-MS after overnight digestion with sCD26): Yes

Source: patent US20030229203
